B1: Heavy metal-associated isoprenylated plant protein 26 (Arabidopsis thaliana (Mouse-ear cress)), Q9SZN7 (parent)
chain: MGVLDHVSEMFDCSHGHKIKKRKQLQTVEIKVKMDCEGCERKVRRSVEGMKGVSSVTLEPKAHKVTVVGYVDPNKVVARMSHRTGKKVELWPYVPYDVVAHPYAAGVYDKKAPSGYVRRVDDPGVSQLARASSTEVRYTTAFSDENPAACVVM
partner: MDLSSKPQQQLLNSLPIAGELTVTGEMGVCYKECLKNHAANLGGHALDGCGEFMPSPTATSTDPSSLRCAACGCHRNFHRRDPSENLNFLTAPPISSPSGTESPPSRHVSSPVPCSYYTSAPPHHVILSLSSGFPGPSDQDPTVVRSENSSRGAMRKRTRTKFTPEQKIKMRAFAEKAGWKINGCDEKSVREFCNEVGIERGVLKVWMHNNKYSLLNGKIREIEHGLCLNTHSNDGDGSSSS

In this experiment the parent is B1. Conditions: with zhd11_arath ZHD11, Q9SEZ1.
With MGVLDHVSEMFDCSHGHKIKKRKQLQTVEIKVKMDGEGGERKVRRSVEGMKGVSSVTLEPKAHKVTVVGYVDPNKVVARMSHRTGKKVELWPYVPYDVVAHPYAAGVYDKKAPSGYVRRVDDPGVSQLARASSTEVRYTTAFSDENPAACVVM [C36G;C39G], the “effect of a mutation on the interaction” value was “disrupting interaction”.

The values above are taken from IntAct's records for PubMed 18974936.
